The results in this text go back to patent publication US20260042827A1, “ANTI-WT1 ANTIGEN-BINDING PROTEINS AND USES THEREOF” (UNIVERSITY HEALTH NETWORK, priority 2022, published 2026).

The test deals with WT1 peptide presented by HLA-DP molecules on K562 transfectants. Nature of the test: Flow cytometric staining of K562 transfectants with WT1-specific mAb. It counts as cell-based, human. As to conditions: flow cytometry; for recognition of naturally processed WT1 peptide on K562/DP cells: K562/DP2 and K562/DP4, endogenous or ectopic WT1; for recognition of exogenously-pulsed WT1 peptide presented by DP molecules: K562 transfectants pulsed with WT1 peptide. The protocol: FIGS. 5A-5S present data showing that WT1-specific mAbs bind to WTT peptide presented by HLA-DP molecules. FIGS. 5A-5B show binding of B7/21 (an anti-HLA-DP mAb) or WT1-specific mAbs to immobilized WT1 peptide or DP4/WT1 monomers as assessed by ELISA. m Abs were added to ELISA plate coated with WT1330-348 or CLIP (control) (FIG. 5A). mAbs were added to ELISA plate coated with DP4/WT1330-348 monomers or DP4/CLIP monomers (control) (FIG. 5B). The data shown represent the mean±SD of experiments performed in triplicates. Results are representative of two independent experiments. ns, not significant, *p<0.05, **p<0.01, ***p<0.001, ****p<0.0001 by two-way ANOVA with Bonferroni correction. […] Interaction strength was measured by a BLI binding assay. FIGS. 5F-5K show the indicated K562 transfectants pulsed with WT1330-348 or CLIP (control) and stained with WT1-specific mAb, 5H2, followed by PE-conjugated anti-mouse secondary Ab and flow cytometric analysis. FIGS. 5L-5S show the indicated K562 transfectants stained with WT1-specific mAb, 5H2, or isotype control mAb, followed by PE-conjugated anti-mouse secondary Ab and flow cytometric analysis.
For surface staining, cells were pelleted and resuspended in a mAb master mix diluted in a PBS/2% FBS buffer. Cells were incubated at 4° C. for 15 minutes and washed prior to analysis. Monoclonal antibodies recognizing the following targets were used for surface staining: CD4 (300505, 1:40, BioLegend), CD8 (301007, 1:100, BioLegend), pan HLA class II (361703, 1:100, BioLegend), NGFR (345131, 1:40, BioLegend), CD25 (301007, 1:100, BioLegend), CD62L (304805, 1:25, BioLegend), CD45RA (304111, 1:10, BioLegend), PD-1 (329905, 1:40, BioLegend), Tim-3 (345007, 1:20, BioLegend). Mouse isotype controls were purchased from BioLegend. Biotinylated Protein-L was purchased from GenScript. For intracellular cytokine staining, TCR or CAR-T cells were stimulated with indicated target cells at an E:T ratio of 1:1. Brefeldin A (BioLegend) was added to the culture media after 2 hours, and the cells were further cultured for 4 hours. Following the surface marker staining, the cells were fixed and permeabilized using the Cytofix/Cytoperm Kit (BD Biosciences) and stained with FITC-anti-IL-2 (500305, 1:20, BioLegend), APC-anti-TNF-α (502913, 1:100, BioLegend), and PE-Cy7-anti-IFN-7 (506517, 1:200, BioLegend). The frequency of cytokine-producing cells within the CD8^+ or CD4^+ T cell population was determined by flow cytometric analysis. For intracellular WT1 staining, cells were fixed and permeabilized using the Cytofix/Cytoperm Kit (BD Biosciences) and stained with mouse anti-WT1 mAb (NB110-60011SS, 1:200, Novus Biologicals), followed by BV421-anti-mouse IgG (405317, 1:20, BioLegend). […]

B1: 5H2: mouse WT1-specific mAb raised against WT1330-348 peptide; VH SEQ ID NO: 37, VL SEQ ID NO: 38 (antibody, V domains shown)
VH: EVQLQQSGAELVRPGALVKLSCKASGFNIKDYYMHWVKQRPEQGLEWIGWIDPENGNTIYDPKFQGKASITADTSSNTAYLQLSSLTSGDTAVYYCTRDGYYMVFAYWGQGTLVTVSA
VL: DIQMTQSPSSLSASLGGKVTITCKASQDINKCIAWYKHKPGKGPRLLIHYTSILQPGIPSRFSGSGSGRDYSFSISNLEPEDIATYYCLQYDNLYTFGGGTKLEIK
modifications: 5H2 - VH; 5H2 - VL
With B1, the “recognition of naturally processed WT1 peptide on K562/DP cells” value is “can bind to K562/DP2 and K562/DP4 cells which express endogenous WT1”; the “recognition of exogenously-pulsed WT1 peptide presented by DP molecules” value was “can recognize exogenously-pulsed WT1330-348 presented by multiple DP molecules such as DP2 and DP5 in addition to DP4”. Further, for the setting “listed as WT1-specific mAb”, the “recognition of naturally processed WT1 peptide on K562/DP cells” value is “can recognize naturally processed WT1 peptide presented by HLA-DP2” and the “recognition of exogenously-pulsed WT1 peptide presented by DP molecules” value is recorded as “can recognize exogenously-pulsed WT1328-348 peptide presented by different HLA-DP molecules”.
